Measurements from the RNAGym collection of RNA variant scans (doi:10.1073/pnas.2313332121).
Variants at the floor of the assay were thinned out.

B1: TPR 5TU (parent)
chain: GGAUCUUCUCGAUCUAACAAAAAAGACAAAUCUGCCACAAAGCUUGAGAGCAUCUUCGGAUGCAGAGGCGGCAGCCUUCGGUGGCGCGAUAGCGCCAACGUUCUCAACUAUGACACGCAAAACGCGUGCUCCGUUGAAUGGAGUUUAUCAUG

Variants of: B1
Test: polymerase ribozyme fitness, log enrichment relative to wild type (log ratio); higher = more active; in vitro selection for triplet polymerase activity
Procedure, shortened: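 Fitness measures genotype enrichment against wild-type enrichment on a logarithmic scale, with inverse-variance-weighted averaging of replicates. The logarithm is base 2, and genotypes were kept only with ≥10 input reads and ≥1 read per output in Illumina sequencing. The sequenced libraries came from one triplicate in vitro selection round, including frozen incubation at −7 °C, of PCR-built, transcribed mutant libraries of each subunit of a heterodimeric triplet polymerase ribozyme.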

Variant	polymerase ribozyme fitness (log ratio)
U44G A91C G126A G143C	≤ -4.2
U45A C69A C95U C99G G112U C114U A147U	≤ -4.2
G42C U56G C114U U127A A138C	≤ -4.2
U44G A52C G92U G141A	≤ -4.2
U45A A52G U82G A115G G136U G141A U151G	≤ -4.2
U44A U53A G86U C132U U135G	≤ -4.2
U44A C85A G92A A107U G128U	≤ -4.2
U44A A49G	≤ -4.2
U44A A49C	-4.06
U45A U102C C105U A119C G143A	≤ -4.2
C43A C57U C76G C85A G86A G140A	≤ -4.2
U45A U56G A73G C96G C99G A107U G140A	≤ -4.2
G42C U56G U144A	≤ -4.2
U44G U45G C72G U144C A147G	≤ -4.2
U45A U82G C129A U139A U145G	≤ -4.2
U45A A47C	-3.93
C43U G50U U109A A150U	≤ -4.2
C43G G50U U61C G86A C95U C125U U146G	≤ -4.2
U45A G88C A113C U134A	≤ -4.2
G42U A91G G128U G133A	≤ -4.2
U44C C85A A91U U127G	≤ -4.2

Variant	polymerase ribozyme fitness (log ratio)
U44A C75G C96U	-4.08
U45C U55A	-1.08
U45A G126A	-2.15
U45A G126U	-3.51
C43U C125G U151G	≤ -4.2
U45G C51U C95A C125U	-3.64
U44A G80A A138U A150G	≤ -4.2
U45C C93A	-3.52
U44G A52C U77C G83A C99A C118A U145G	≤ -4.2
U45A G84U C108G	≤ -4.2
C43A U53A U55A G74A C76A G88U A142G	≤ -4.2
U45A U82A A106G A122G U148G	≤ -4.2
U45A C85U	-3.1
U45A A47U G80U U90A	≤ -4.2
U44G C75G G88C	≤ -4.2
U44G A60U C99G U111G G141C	≤ -4.2
U44A G50C U53A C87A A106G A107U	≤ -4.2
U45A C116U	-2.44
U44C G50U U101G C131U U139C C149U	≤ -4.2
G42C U45G U146C	≤ -4.2
G42U U44G A60G G71A G86A A106U U134G U135C	≤ -4.2

Variant	polymerase ribozyme fitness (log ratio)
C43U A91U A98G C99U U102G	≤ -4.2
U45G A91C U101G A147C	≤ -4.2
U44G A47C A66G G67A C87A C96G U145A	≤ -4.2
C43U G86U	-4.15
U45A G84A	-3.44
U44A U53A G58U G83U U102G A122U	≤ -4.2
U44A G88A A120G	≤ -4.2
U44A G88A A120U	≤ -4.2
U45A C51U C54U G92U	-3.95
C43G G94A G133U A137U	-4.11
U45A G88C	≤ -4.2
C43U A73G	≤ -4.2
C43A C75U A106U C108U C123G G141A	≤ -4.2
U45A G59U G74U A121G G141A	≤ -4.2
U44A U55A C63G C85U C87G G92U	≤ -4.2
C43A C57G G84A	≤ -4.2
U44A U53G C105U C116G G141C	≤ -4.2
C43U U55G A60U U109A U145C U146C	≤ -4.2
G42C U44G G88A A97C	≤ -4.2
U45C A119C	-0.959
G42U U56A G58A C76U C95G A98G	≤ -4.2

Variant	polymerase ribozyme fitness (log ratio)
U44A G88C	≤ -4.2
G42U U55G G59A G88U C96G A98G C118G	≤ -4.2
U45C G80C C85U C87G G92A U144G	≤ -4.2
G42U G71U G88U G92C A97C A122G U134C	≤ -4.2
U45A A66U G71A	≤ -4.2
U45A A91C C95G A142U	≤ -4.2
U44G G48A G84A	≤ -4.2
U45A G67C G84U C108U A120U	≤ -4.2
C43A U53A C57A C95U	≤ -4.2
U44G C54G C76G C85A	≤ -4.2
C43U C57U	-3.79
U45A C99A	≤ -4.2
U44G U61C	≤ -4.2
C43U U61G A64C U77G C85U A110U C116G	-4.02
U44A G48C C87A A115U C125A	≤ -4.2
U44C G94C U146A	≤ -4.2
C43U A47G A64C G67U C96U G141A	≤ -4.2
C43A A66G U77A A97G U146A	≤ -4.2
U45A U148G C149G	≤ -4.2
G42U G84U U134C U139G	≤ -4.2
